First the molecules themselves.
T1: human beta-dystroglycan extracellular domain (soluble) (human, UniProt Q14118 654-749)
T1 construct: extracellular domain; The expression construct of soluble human beta-DG is not described (only the mouse one); also called hBeta-DG; hbeta-DG
T1 sequence (looked up): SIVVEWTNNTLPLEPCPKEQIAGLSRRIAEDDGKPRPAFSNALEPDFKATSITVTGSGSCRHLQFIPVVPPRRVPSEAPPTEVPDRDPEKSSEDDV

B1: triAb 3423 (bispecific antibody)
light 1: EIVLTQSPDFLSVTPKEKVTLSCRASQSISNYLHWYQQKSDQSPKLLIKYASQSISGIPSRFSGSGSGTDFTLSINSVEAEDAATYFCQQSKSWPRTFGGGTKLEIKDKTHTEIVLTQSPDFLSVTPKEKVTLTCRASQSISNNLHWYQQKSDQSPKLLIKYASQSISGIPSRFSGSGSGTDFTLTINSVEAEDAATYFCQQSKSWPRTFGGGTKLEIKDKTHTRTVAAPSVFIFPPSDEQLKSGTASVVCLLNNFYPREAKVQWKVDNALQSGNSQESVTEQDSKDSTYSLSSTLTLSKADYEKHKVYACEVTHQGLSSPVTKSFNRGEC
heavy 1: EVQLVESGGGLVKPGGSLRLSCAASGFTFSSYTMSWVRQAPGKGLEWVASISSSGSNTYYPDSVKGRFTISRDNAKNNLYLQMNSLRAEDTALYYCARFDYGSSLDSWGQGTLLTVSSDKTHTEVQLVESGGGLVKPGGSLRLSCAASGFTFSSYTMSWVRQAPGKGLEWVASISSSGSNTYYPDSVKGRFTISRDNAKNNLYLQMNSLRAEDTALYYCARFDYGSSLDSWGQGTLLTVSSDKTHTASTKGPSVFPLAPSSKSTSGGTAALGCLVKDYFPEPVTVSWNSGALTSGVHTFPAVLQSSGLYSLSSVVTVPSSSLGTQTYICNVNHKPSNTKVDKKVEPKSCDKTHTCPPCPAPELLGGPSVFLFPPKPKDTLYITREPEVTCVVVDVSHEDPEVKFNWYVDGVEVHNAKTKPREEQYNNASRVVSVLTVLHQDWLNGKEYKCKVSNKALPAPIEKTISKAKGQPREPQVYTLPPCRDELTKNQVSLWCLVKGFYPSDIAVEWESNGQPENNYKTTPPVLDSDGSFFLYSKLTVDKSRWQQGNVFSCSVMHEALHNHYTQKSLSLSPG
heavy 2: QVQLVQSGAEVVKPGSSVKVSCEASGFTFTDSVITWVRQRPGQGLEWIGEIYPGSGNFYYNEKFQGRVTITADKSTSTAYMELSSLRSEDTAVYFCAMRRSSWGQGTLVTVSSASTKGPSVFPLAPSSKSTSGGTAALGCLVKDYFPEPVTVSWNSGALTSGVHTFPAVLQSSGLYSLSSVVTVPSSSLGTQTYICNVNHKPSNTKVDKKVEPKSCDKTHTCPPCPAPELLGGPSVFLFPPKPKDTLYITREPEVTCVVVDVSHEDPEVKFNWYVDGVEVHNAKTKPREEQYNNASRVVSVLTVLHQDWLNGKEYKCKVSNKALPAPIEKTISKAKGQPREPQVCTLPPSRDELTKNQVSLSCAVKGFYPSDIAVEWESNGQPENNYKTTPPVLDSDGSFFLVSKLTVDKSRWQQGNVFSCSVMHEALHNRFTQKSLSLSPG
light 2: DVVMTQTPLSLSVTPGQPASISCKSSQTIVHSNSKTYLEWYLQKPGQSPQLLIYKVSSRFSGVPDRFSGSGSGTDFTLKISRVEAEDVGVYYCFQGSHVPLTFGQGTKLEIKRTVAAPSVFIFPPSDEQLKSGTASVVCLLNNFYPREAKVQWKVDNALQSGNSQESVTEQDSKDSTYSLSSTLTLSKADYEKHKVYACEVTHQGLSSPVTKSFNRGEC
notes: Trivalent: CODV arm VH1/VL1 C3_Hu10, VH2/VL2 C21_Hu11
B2: triAb 3439 (bispecific antibody)
light 1: EIVLTQSPDFLSVTPKEKVTLTCRASQSISNNLHWYQQKSDQSPKLLIKYASQSISGIPSRFSGSGSGTDFTLTINSVEAEDAATYFCQQSKSWPRTFGGGTKLEIKDKTHTEIVLTQSPDFLSVTPGEKVTLTCRASQSISNYLHWYQQKSDQSPKLLIKYASQSISGVPSRFSGSGSGTDFTLTISSVEAEDFATYFCQQSKSWPRTFGGGTKLEIKDKTHTRTVAAPSVFIFPPSDEQLKSGTASVVCLLNNFYPREAKVQWKVDNALQSGNSQESVTEQDSKDSTYSLSSTLTLSKADYEKHKVYACEVTHQGLSSPVTKSFNRGEC
heavy 1: EVQLVESGGGLVQPGGSLRLSCAASGFTFSSYTMSWVRQAPGKGLEWVATISSSGDNTYYPDSVKGRFTISRDNSKNTLYLQMSSLRAEDTALYYCARFDYGSSLDSWGQGTTLTVSSDKTHTEVQLVESGGGLVKPGGSLRLSCAASGFTFSSYTMSWVRQAPGKGLEWVASISSSGSNTYYPDSVKGRFTISRDNAKNNLYLQMNSLRAEDTALYYCARFDYGSSLDSWGQGTLLTVSSDKTHTASTKGPSVFPLAPSSKSTSGGTAALGCLVKDYFPEPVTVSWNSGALTSGVHTFPAVLQSSGLYSLSSVVTVPSSSLGTQTYICNVNHKPSNTKVDKKVEPKSCDKTHTCPPCPAPELLGGPSVFLFPPKPKDTLYITREPEVTCVVVDVSHEDPEVKFNWYVDGVEVHNAKTKPREEQYNNASRVVSVLTVLHQDWLNGKEYKCKVSNKALPAPIEKTISKAKGQPREPQVYTLPPCRDELTKNQVSLWCLVKGFYPSDIAVEWESNGQPENNYKTTPPVLDSDGSFFLYSKLTVDKSRWQQGNVFSCSVMHEALHNHYTQKSLSLSPG
heavy 2: QVQLVQSGAEVVKPGSSVKVSCEASGFTFTDSVITWVRQRPGQGLEWIGEIYPGSGNFYYNEKFQGRVTITADKSTSTAYMELSSLRSEDTAVYFCAMRRSSWGQGTLVTVSSASTKGPSVFPLAPSSKSTSGGTAALGCLVKDYFPEPVTVSWNSGALTSGVHTFPAVLQSSGLYSLSSVVTVPSSSLGTQTYICNVNHKPSNTKVDKKVEPKSCDKTHTCPPCPAPELLGGPSVFLFPPKPKDTLYITREPEVTCVVVDVSHEDPEVKFNWYVDGVEVHNAKTKPREEQYNNASRVVSVLTVLHQDWLNGKEYKCKVSNKALPAPIEKTISKAKGQPREPQVCTLPPSRDELTKNQVSLSCAVKGFYPSDIAVEWESNGQPENNYKTTPPVLDSDGSFFLVSKLTVDKSRWQQGNVFSCSVMHEALHNRFTQKSLSLSPG
light 2: DVVMTQTPLSLSVTPGQPASISCKSSQTIVHSNSKTYLEWYLQKPGQSPQLLIYKVSSRFSGVPDRFSGSGSGTDFTLKISRVEAEDVGVYYCFQGSHVPLTFGQGTKLEIKRTVAAPSVFIFPPSDEQLKSGTASVVCLLNNFYPREAKVQWKVDNALQSGNSQESVTEQDSKDSTYSLSSTLTLSKADYEKHKVYACEVTHQGLSSPVTKSFNRGEC
notes: Trivalent: CODV arm VH1/VL1 C21_Hu21, VH2/VL2 C3_Hu10
B3: triAb 3437 (bispecific antibody)
light 1: EIVLTQSPDFLSVTPKEKVTLTCRASQSIGNNLHWYQQKSDQSPKLLIKYASQSISGIPSRFSGSGSGTDFTLTINSVEAEDAATYFCQQSKSWPRTFGGGTKLEIKDKTHTEIVLTQSPDFLSVTPKEKVTLSCRASQSISNYLHWYQQKSDQSPKLLIKYASQSISGIPSRFSGSGSGTDFTLSINSVEAEDAATYFCQQSKSWPRTFGGGTKLEIKDKTHTRTVAAPSVFIFPPSDEQLKSGTASVVCLLNNFYPREAKVQWKVDNALQSGNSQESVTEQDSKDSTYSLSSTLTLSKADYEKHKVYACEVTHQGLSSPVTKSFNRGEC
heavy 1: EVQLVESGGGLVKPGGSLRLSCAASGFTFSSYTMSWVRQAPGKGLEWVASISSSGSNTYYPDSVKGRFTISRDNAKNNLYLQMNSLRAEDTALYYCARFDYGSSLDSWGQGTLLTVSSDKTHTEVQLVESGGGLVKPGGSLRLSCAASGFTFSSYTMSWVRQAPGKGLEWVASISSSGSNTYYPDSVKGRFTISRDNAKNNLYLQMNSLRAEDTALYYCARFDYGSSLDSWGQGTLLTVSSDKTHTASTKGPSVFPLAPSSKSTSGGTAALGCLVKDYFPEPVTVSWNSGALTSGVHTFPAVLQSSGLYSLSSVVTVPSSSLGTQTYICNVNHKPSNTKVDKKVEPKSCDKTHTCPPCPAPELLGGPSVFLFPPKPKDTLYITREPEVTCVVVDVSHEDPEVKFNWYVDGVEVHNAKTKPREEQYNNASRVVSVLTVLHQDWLNGKEYKCKVSNKALPAPIEKTISKAKGQPREPQVYTLPPCRDELTKNQVSLWCLVKGFYPSDIAVEWESNGQPENNYKTTPPVLDSDGSFFLYSKLTVDKSRWQQGNVFSCSVMHEALHNHYTQKSLSLSPG
heavy 2: QVQLVQSGAEVVKPGSSVKVSCEASGFTFTDSVITWVRQRPGQGLEWIGEIYPGSGNFYYNEKFQGRVTITADKSTSTAYMELSSLRSEDTAVYFCAMRRSSWGQGTLVTVSSASTKGPSVFPLAPSSKSTSGGTAALGCLVKDYFPEPVTVSWNSGALTSGVHTFPAVLQSSGLYSLSSVVTVPSSSLGTQTYICNVNHKPSNTKVDKKVEPKSCDKTHTCPPCPAPELLGGPSVFLFPPKPKDTLYITREPEVTCVVVDVSHEDPEVKFNWYVDGVEVHNAKTKPREEQYNNASRVVSVLTVLHQDWLNGKEYKCKVSNKALPAPIEKTISKAKGQPREPQVCTLPPSRDELTKNQVSLSCAVKGFYPSDIAVEWESNGQPENNYKTTPPVLDSDGSFFLVSKLTVDKSRWQQGNVFSCSVMHEALHNRFTQKSLSLSPG
light 2: DVVMTQTPLSLSVTPGQPASISCKSSQTIVHSNSKTYLEWYLQKPGQSPQLLIYKVSSRFSGVPDRFSGSGSGTDFTLKISRVEAEDVGVYYCFQGSHVPLTFGQGTKLEIKRTVAAPSVFIFPPSDEQLKSGTASVVCLLNNFYPREAKVQWKVDNALQSGNSQESVTEQDSKDSTYSLSSTLTLSKADYEKHKVYACEVTHQGLSSPVTKSFNRGEC
notes: Trivalent: CODV arm VH1/VL1 C21_Hu11, VH2/VL2 C3_Hu11

Among the data in patent publication US20180237511A1 (Sanofi, published 2018) are Kd, koff and kon values, retold here.

The target in this assay is T1, human beta-dystroglycan extracellular …. Put plainly: SPR, antibody on Protein G chip, beta-DG in flow, 1:1 model (table title says laminin-2; paragraph 445 says human beta-DG). As for the experimental part:
Data was evaluated with a 1:1 binding model using the BIAevaluation software.
SPR was used as described above to analyze the kinetics of triAb binding to laminin-2 (Table N) or beta-DG (Table O).
With B1, the Kd is 1.6 nM, the koff amounted to 0.00433 s⁻¹ and the kon stood at 2.7e+06 M⁻¹ s⁻¹.
Taken in the same sequence, the figures for B2 were 1.3 nM, 0.004 s⁻¹ and 3.07e+06 M⁻¹ s⁻¹.
The like results for B3 were, in that order, 1.87 nM, 0.0045 s⁻¹ and 2.41e+06 M⁻¹ s⁻¹.

Usually Kd stands for the concentration at which binding is half-saturated. Lower therefore signals higher affinity. Broadly, the koff is the first-order rate constant of dissociation. In general, kon refers to the second-order rate constant of association. Read a high kon as faster complex formation.
